# T1: human B7-H4 (human, UniProt Q7Z7D3 25-282)
# T1 construct: whole, on cells; also called VTCN1; SK-BR-3 cell line highly expressing B7-H4
# T1 sequence (looked up): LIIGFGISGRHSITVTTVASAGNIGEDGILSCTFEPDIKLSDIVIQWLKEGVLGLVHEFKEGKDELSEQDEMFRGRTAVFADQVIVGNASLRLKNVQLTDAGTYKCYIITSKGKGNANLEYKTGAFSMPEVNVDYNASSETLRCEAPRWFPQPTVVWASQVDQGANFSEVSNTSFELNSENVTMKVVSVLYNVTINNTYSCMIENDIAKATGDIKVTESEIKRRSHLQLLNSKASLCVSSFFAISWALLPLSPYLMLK
# T2: mouse B7-H4 (mouse, UniProt Q7TSP5 25-257)
# T2 construct: whole, on cells; also called CHO-K1/m B7-H4; CHO-K1/mB7-H4
# T2 sequence (looked up): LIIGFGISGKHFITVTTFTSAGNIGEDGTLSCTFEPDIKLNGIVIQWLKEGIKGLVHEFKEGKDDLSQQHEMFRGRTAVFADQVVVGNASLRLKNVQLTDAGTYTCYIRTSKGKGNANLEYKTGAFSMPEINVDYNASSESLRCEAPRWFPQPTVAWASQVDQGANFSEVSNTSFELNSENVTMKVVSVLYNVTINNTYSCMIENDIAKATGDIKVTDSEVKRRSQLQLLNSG
# T3: cynomolgus monkey B7-H4 (cynomolgus monkey, UniProt A0A2K5U6P5 25-282)
# T3 construct: whole, on cells; also called CHO-K1/cyno B7-H4; CHO-K1/cynoB7H4
# T3 sequence: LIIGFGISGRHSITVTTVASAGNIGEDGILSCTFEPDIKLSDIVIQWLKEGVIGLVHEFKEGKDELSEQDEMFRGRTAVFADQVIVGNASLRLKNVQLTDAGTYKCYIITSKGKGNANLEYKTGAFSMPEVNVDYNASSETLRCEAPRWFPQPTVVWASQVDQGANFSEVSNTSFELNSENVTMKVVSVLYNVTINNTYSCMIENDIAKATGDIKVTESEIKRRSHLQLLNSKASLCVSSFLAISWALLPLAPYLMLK
# Legend:
# cynomolgus monkey 4-1BB [1] = target: T4, cynomolgus monkey 4-1BB (cynomolgus monkey); experiment: FACS, CHO-K1/cyno 4-1BB cells [A]
# T4 construct: whole, on cells; also called CHO-K1-cyno 4-1BB; CHO-K1/cyno4-1BB
# Description: (§1) This example is intended to investigate the in vitro binding activity of anti-human 4-1BB HCAb and H2L2 monoclonal antibodies to human and cynomolgus monkey 4-1BB. Antibody binding experiments at the cellular level were conducted using a CHO-K1 cell strain overexpressing human 4-1BB (CHO-K1-hu 4-1BB, Genescript) and a CHO-K1 cell strain overexpressing cynomolgus monkey 4-1BB (CHO-K1-cyno 4-1BB, Genescript). Briefly, the CHO-K1-hu 4-1BB and CHO-K1-cyno 4-1BB cells were digested and resuspended in DMEM complete medium, and the cell density was adjusted to 1×10⁶ cells/mL. […] The cells were incubated at 4° C. for 1 h away from light. Thereafter, the cells in each well were rinsed twice with 100 μL of pre-cooled PBS, and centrifuged at 500 g at 4° C. for 5 min, and then the supernatant was discarded. […] The plate was incubated away from light at 4° C. for 30 min. The cells in each well were rinsed twice with 100 μL of pre-cooled PBS, and centrifuged at 500 g at 4° C. for 5 min, and then the supernatant was discarded. Finally, the cells in each well were resuspended in 200 μL of pre-cooled PBS, and the fluorescence signal values were read using a BD FACS CANTOII.
# cynomolgus monkey 4-1BB [2] = target: T4, cynomolgus monkey 4-1BB; experiment: FACS, CHO-K1/cyno 4-1BB cells [D]
# Description: as §1
# cynomolgus monkey 4-1BB [3] = target: T4, cynomolgus monkey 4-1BB; experiment: FACS, CHO-K1/cyno 4-1BB cells [F]
# Description: as §1
# cynomolgus monkey 4-1BB [4] = target: T4, cynomolgus monkey 4-1BB; experiment: FACS, CHO-K1/cyno 4-1BB cells [C]
# Description: as §1
# cynomolgus monkey 4-1BB [5] = target: T4, cynomolgus monkey 4-1BB; experiment: FACS, CHO-K1/cyno 4-1BB cells [H]
# Description: (§2) Antibody binding experiments at the cellular level were conducted using a CHO-K1 cell strain overexpressing human 4-1BB (CHO-K1-hu 4-1BB, Genescript) and a CHO-K1 cell strain overexpressing cynomolgus monkey 4-1BB (CHO-K1-cyno 4-1BB, Genescript). Briefly, the CHO-K1-hu 4-1BB and CHO-K1-cyno 4-1BB cells were digested and resuspended in DMEM complete medium, and the cell density was adjusted to 1×10⁶ cells/mL. […] The cells were incubated at 4° C. for 1 h away from light. Thereafter, the cells in each well were rinsed twice with 100 μL of pre-cooled PBS, and centrifuged at 500 g at 4° C. for 5 min, and then the supernatant was discarded. […] The plate was incubated away from light at 4° C. for 30 min. The cells in each well were rinsed twice with 100 μL of pre-cooled PBS, and centrifuged at 500 g at 4° C. for 5 min, and then the supernatant was discarded. Finally, the cells in each well were resuspended in 200 μL of pre-cooled PBS, and the fluorescence signal values were read using a BD FACS CANTOII.
# cynomolgus monkey 4-1BB [6] = target: T4, cynomolgus monkey 4-1BB; experiment: FACS, CHO-K1/cyno 4-1BB cells [E]
# Description: as §1
# cynomolgus monkey 4-1BB [7] = target: T4, cynomolgus monkey 4-1BB; experiment: FACS, CHO-K1/cyno 4-1BB cells [B]
# Description: as §1
# human 4-1BB [8] = target: T5, human 4-1BB (human, UniProt Q07011 24-255); experiment: FACS, CHO-K1/hu 4-1BB cells [G]
# T5 construct: whole, on cells; also called CD137; TNFRSF9
# Description: as §1
# human 4-1BB [9] = target: T5, human 4-1BB; experiment: FACS on CHO-K1-hu 4-1BB cells
# human 4-1BB [10] = target: T5, human 4-1BB; experiment: FACS, CHO-K1/hu 4-1BB cells [I]
# Description: as §1
# human B7-H4 [11] = target: T1, human B7-H4; experiment: FACS, SK-BR-3 cells [A]
# Description: (§3) This example is intended to investigate the in vitro binding activity of anti-human B7-H4 H2L2 monoclonal antibody to human/cynomolgus monkey/mouse B7-H4. Antibody binding experiments at the cellular level were conducted using a CHO-K1 cell strain overexpressing cynomolgus monkey B7-H4 (CHO-K1/cyno B7-H4, prepared in-house by Harbour Biomed), a CHO-K1 cell strain overexpressing mouse B7-H4 (CHO-K1/m B7-H4, prepared in-house by Harbour Biomed) and an SK-BR-3 cell line highly expressing human B7-H4 (ATCC® HTB-30). Briefly, the CHO-K1/cyno B7-H4 cells, CHO-K1/m B7-H4 cells or SK-BR-3 cells were digested and resuspended with PBS containing 2% BSA. The cell density was adjusted to 1×10⁶ cells/mL. […] The cells were incubated at 4° C. for 2 h away from light. Thereafter, the cells in each well were rinsed twice with 100 μL of pre-cooled PBS containing 2% BSA, and centrifuged at 500 g at 4° C. for 5 min, and then the supernatant was discarded. […] The plate was incubated away from light at 4° C. for 1 h. The cells in each well were rinsed twice with 100 μL of pre-cooled PBS containing 2% BSA, and centrifuged at 500 g at 4° C. for 5 min, and then the supernatant was discarded. Finally, the cells in each well were resuspended in 200 μL of pre-cooled PBS containing 2% BSA, and the fluorescence signal values were read using an ACEA Novocyte3000 flow cytometer.
# mouse B7-H4 = target: T2, mouse B7-H4; experiment: FACS, CHO-K1/m B7H4 cells [C]
# Description: as §3
# cynomolgus monkey B7-H4 = target: T3, cynomolgus monkey B7-H4; experiment: FACS, CHO-K1/cyno B7H4 cells [B]
# Description: as §3
# human B7-H4 [12] = target: T1, human B7-H4; experiment: FACS, MDA-MB-468 cells [A]
# human B7-H4 [13] = target: T1, human B7-H4; experiment: FACS, SKBR3 cells [A]
# human 4-1BB [14] = target: T5, human 4-1BB; experiment: FACS, CHO-K1/hu 4-1BB cells [H]
# Description: as §2
# human 4-1BB [15] = target: T5, human 4-1BB; experiment: FACS, CHO-K1/hu 4-1BB cells [F]
# Description: as §1
# cynomolgus monkey 4-1BB [16] = target: T4, cynomolgus monkey 4-1BB; experiment: FACS, CHO-K1/cyno 4-1BB cells [G]
# Description: as §2
# human 4-1BB [17] = target: T5, human 4-1BB; experiment: FACS, CHO-K1/h4-1BB cells [L]
# Description: (§4) Antibody binding experiments at the cellular level were conducted using a CHO-K1 cell strain overexpressing human 4-1BB (CHO-K1/hu 4-1BB, Genscript, #M00538) and a CHO-K1 cell strain overexpressing cynomolgus monkey 4-1BB (CHO-K1/cyno 4-1BB, Genscript, #M00569). Briefly, the CHO-K1-hu 4-1BB and CHO-K1/cyno 4-1BB cells were digested, resuspended in F12K complete medium, and washed once with PBS. The cell density was adjusted to 1×10⁶ cells/mL with PBS. […] The cells were incubated at 4° C. for 1 h away from light. Thereafter, the cells in each well were rinsed twice with 100 μL of pre-cooled PBS, and centrifuged at 500 g at 4° C. for 5 min, and then the supernatant was discarded. […] The plate was incubated away from light at 4° C. for 30 min. The cells in each well were rinsed twice with 100 μL of pre-cooled PBS, and centrifuged at 500 g at 4° C. for 5 min, and then the supernatant was discarded. Finally, the cells in each well were resuspended in 200 μL of pre-cooled PBS, and the fluorescence signal values were read using a BD FACS CANTOII or an ACEA NovoCyte flow cytometer.
# cynomolgus monkey 4-1BB [18] = target: T4, cynomolgus monkey 4-1BB; experiment: FACS, CHO-K1/cyno-4-1BB cells [B]
# Description: (§5) Antibody binding experiments at the cellular level were conducted using a CHO-K1 cell strain overexpressing human 4-1BB (CHO-K1/h4-1BB, Gensript, #M00538), a CHO-K1 cell strain expressing cynomolgus monkey 4-1BB (CHO-K1/cyno4-1BB, Genscript, #M00569) and a CHO-K1 cell strain overexpressing mouse 4-1BB (CHO-K1/m4-1BB, Genscript, #M00568). Briefly, the CHO-K1/h4-1BB cells, CHO-K1/cyno 4-1BB cells and CHO-K1/m 4-1BB cells were digested and resuspended with PBS containing 2% FBS. The cell density was adjusted to 1×10⁶ cells/mL. […] The cells were incubated at 4° C. for 2 h away from light. Thereafter, the cells in each well were rinsed twice with 100 μL of a pre-cooled FACS buffer, PBS containing 2% FBS, and centrifuged at 500 g at 4° C. for 5 min, and then the supernatant was discarded. […] The plate was incubated away from light at 4° C. for 1 h. The cells in each well were rinsed twice with 100 μL of pre-cooled FACS buffer, and centrifuged at 500 g at 4° C. for 5 min, and then the supernatant was discarded. Finally, the cells in each well were resuspended in 200 μL of pre-cooled FACS buffer, and the fluorescence signal values were read using an ACEA Novocyte3000 flow cytometer.
# human 4-1BB [19] = target: T5, human 4-1BB; experiment: FACS, CHO-K1/h4-1BB cells [A]
# Description: as §5
# human 4-1BB [20] = target: T5, human 4-1BB; experiment: FACS, CHO-K1/h4-1BB cells [K]
# Description: as §4
# human 4-1BB [21] = target: T5, human 4-1BB; experiment: FACS, CHO-K1/hu 4-1BB cells [A]
# Description: as §1
# T5 sequence (Q07011 24-255): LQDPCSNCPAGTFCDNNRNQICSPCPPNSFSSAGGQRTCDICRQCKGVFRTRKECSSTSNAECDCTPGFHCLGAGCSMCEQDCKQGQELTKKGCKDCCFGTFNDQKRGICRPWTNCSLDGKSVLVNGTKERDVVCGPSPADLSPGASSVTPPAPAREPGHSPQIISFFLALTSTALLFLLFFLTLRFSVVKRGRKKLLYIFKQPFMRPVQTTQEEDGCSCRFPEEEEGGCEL
binder,measurement,setting,value
"Utomilumab analog (PR000483) (antibody, human IgG2, lambda, V domains shown, anti-4-1BB control antibody; also called Tab) VH: EVQLVQSGAEVKKPGESLRISCKGSGYSFSTYWISWVRQMPGKGLEWMGKIYPGDSYTNYSPSFQGQVTISADKSISTAYLQWSSLKASDTAMYYCARGYGIFDYWGQGTLVTVSS VL: SYELTQPPSVSVSPGQTASITCSGDNIGDQYAHWYQQKPGQSPVLVIYQDKNRPSGIPERFSGSNSGNTATLTISGTQAMDEADYYCATYTGFGSLAVFGGGTKLTVLG",EC50,cynomolgus monkey 4-1BB [1],0.485 nM
same,Maximum MFI,cynomolgus monkey 4-1BB [1],11000 MFI
same,EC50,cynomolgus monkey 4-1BB [2],3.46 nM
same,Maximum MFI,cynomolgus monkey 4-1BB [2],55500 MFI
same,EC50,cynomolgus monkey 4-1BB [3],0.485 nM
same,Maximum MFI,cynomolgus monkey 4-1BB [3],11000 MFI
same,EC50,cynomolgus monkey 4-1BB [4],3.46 nM
same,Maximum MFI,cynomolgus monkey 4-1BB [4],55500 MFI
same,EC50,cynomolgus monkey 4-1BB [5],0.929 nM
same,EC50,cynomolgus monkey 4-1BB [6],0.485 nM
same,Maximum MFI,cynomolgus monkey 4-1BB [6],11000 MFI
same,EC50,cynomolgus monkey 4-1BB [7],3.46 nM
same,Maximum MFI,cynomolgus monkey 4-1BB [7],55500 MFI
"PR001842 (antibody, human IgG1, V domains shown, anti-4-1BB HCAb, human IgG1 Fc) VH: EVQLLESGGGLVQPGGSLRLSCAASGFTFSSYAMSWGRQAPGKGLEWVSAISGSGGSTYYADSVKGRFTISRDNSKNTLYLHMNSLRAEDTAVYYCAKEKVATTGDYYYDMDVWGQGTTVTVSS",EC50,cynomolgus monkey 4-1BB [3],2.29 nM
same,Maximum MFI,cynomolgus monkey 4-1BB [3],9660 MFI
same,EC50,human 4-1BB [8],0.537 nM
"PR007381 (antibody, human IgG1, V domains shown, anti-4-1BB HCAb, human IgG1 Fc; also called germline variant of PR004469) VH: EVQLLESGGGLVQPGGSLRLSCAASGFTFSNYAMSWVRQAPGKGLEWVSSIDASGGDTYYADSVKGRFTISRDNSKNTLYLQMNSLRAEDTAVYYCAKEGSHGTDDSHYDVDVWGQGTTVTVSS",binding result,human 4-1BB [9],binds
"PR000448 (antibody, human IgG4 S228P, kappa, V domains shown, anti-4-1BB H2L2 recombinant fully human IgG antibody, human IgG1 / kappa) VH: QVQLQQWGAGLLKPSETLSLTCAVYGGSFSGYYWSWIRQPPGKGLEWIGEIQHSGSTDSNPSLKGRVTFSVDTSKNQFSLKLNSVTAADTAVYYCARLTGPFDYWGQGTLVTVSS VL: EIVMTQSPATLSVSPGERATLSCRASQSISSILAWYQQKPGQAPRLLIYGASTRATGIPARFSGSGSGTEFTLTISSLQSEDFAVYYCQQYYNWPLTFGGGTKVEIKR",EC50,human 4-1BB [10],0.947 nM
same,EC50,cynomolgus monkey 4-1BB [5],1.06 nM
"control antibody 1 (PR000157) (antibody, V domains shown, also called Positive control 1; 1D11.v1.9varC2) VH: EVQLVQSGAEVKKPGASVKVSCKASGYTFTSYWIGWVRQAPGQGLEWIGDIYPGGGYTNYNEKFKGRVTITRDTSTSTAYLELSSLRSEDTAVYYCARLAGSSYRGAMDSWGQGTLVTVSS VL: DIQMTQSPSSLSASVGDRVTITCKASQGFNKYVAWYQQKPGKAPKLLIYYTSTLQPGVPSRFSGSGSGRDYTLTISSLQPEDFATYYCLQYGDLLYAFGQGTKVEIKR",EC50,human B7-H4 [11],1.2 nM
same,Maximum MFI,human B7-H4 [11],266000 MFI
same,EC50,mouse B7-H4,1.73 nM
same,Maximum MFI,mouse B7-H4,1.75e+06 MFI
same,EC50,cynomolgus monkey B7-H4,2.1 nM
same,Maximum MFI,cynomolgus monkey B7-H4,1.99e+06 MFI
same,EC50 (read off the curve),human B7-H4 [12],~6 nM
same,EC50 (read off the curve),human B7-H4 [13],~4 nM
"PR001838 (antibody, human IgG1, V domains shown, anti-4-1BB HCAb, human IgG1 Fc) VH: EVQLLESGGGLVQPGGSLRLSCAASGFTFSNYAMSWFRQPPETGLKWVSSIDGSGGDTYYADSVKGRFTISRDNSKNTLYLQMNSLRAEDTAVYYCAKEGSHGTDDSHYDVDVWGQGTTVTVSS",EC50,human 4-1BB [14],0.851 nM
same,Maximum MFI,human 4-1BB [14],102000 MFI
same,EC50,human 4-1BB [15],0.248 nM
same,Maximum MFI,human 4-1BB [15],1770 MFI
same,EC50,cynomolgus monkey 4-1BB [3],1.09 nM
same,Maximum MFI,cynomolgus monkey 4-1BB [3],13400 MFI
same,EC50,cynomolgus monkey 4-1BB [16],0.329 nM
"PR004469 (antibody, human IgG1, V domains shown, anti-4-1BB HCAb, human IgG1 Fc; also called PTM variant of PR001838 (G53A)) VH: EVQLLESGGGLVQPGGSLRLSCAASGFTFSNYAMSWFRQPPETGLKWVSSIDASGGDTYYADSVKGRFTISRDNSKNTLYLQMNSLRAEDTAVYYCAKEGSHGTDDSHYDVDVWGQGTTVTVSS",EC50,human 4-1BB [14],1.29 nM
same,Maximum MFI,human 4-1BB [14],109000 MFI
same,EC50,human 4-1BB [17],17 nM
same,EC50,cynomolgus monkey 4-1BB [18],25.4 nM
same,EC50,human 4-1BB [19],18 nM
same,EC50,cynomolgus monkey 4-1BB [16],0.568 nM
"PR001760 (antibody, human IgG1, V domains shown, anti-4-1BB HCAb, human IgG1 Fc) VH: EVQLVESGGGVVQPGGSLRLSCAASGFTFSNYAMTWVRQAPEKGLEWVSSISGSGVSTYYADSVKGRFTISRDNSKNTLYLQMTRLTAEDTAVYFCAKEGSSETDDHYYNVDVWGQGTTVTVSS",EC50,cynomolgus monkey 4-1BB [1],0.443 nM
same,Maximum MFI,cynomolgus monkey 4-1BB [1],17400 MFI
same,EC50,human 4-1BB [20],3.76 nM
same,Maximum MFI,human 4-1BB [20],83600 MFI
same,EC50,human 4-1BB [21],0.198 nM
same,Maximum MFI,human 4-1BB [21],1740 MFI

# Reference: patent US20230235090A1 (HARBOUR BIOMED US, published 2023)
